According to patent publication US20060252692A1, “Inhibitors for use in hemostasis” (ZymoGenetics, Inc., priority 2002, published 2006):

Tested on: classical pathway of human Complement serum
Test: Complement hemolysis assay, classical pathway (sheep erythrocytes)
Assay type: biochemical
Protocol: Complement assays were performed in 96 well round bottom plates. Gelatin Veronal buffer containing magnesium and calcium (141 mM NaCl, 1.8 mM sodium barbitol, 3.1 mM barbituric acid, 0.1% bovine gelatin, 0.5 mM MgCl2 and 0.15 mM CaCl2) was used for all serum and inhibitor dilutions as well as erythrocyte suspensions. Fifty microliters of standardized human Complement serum (Sigma Chemical Co.), diluted 1/37.5 (for a final dilution of 1/150) was added to each well. The inhibitor was added in triplicate, 50 μl/well. The serum and inhibitor were incubated for thirty minutes at room temperature. The assay was initiated by the addition of 100 μl of 2×10^8/ml unsensitized sheep erythrocytes (Colorado Serum Co.; Denver, Colo.), sensitized sheep erythrocytes, sensitized using the Hemolysin manufacturer's protocol (BioWhittaker Inc.; Walkersville, Md.) and rabbit erythrocytes containing 16 mM EGTA, and 4 mM Mg^++. A human serum dilution series from 1/50 to 1/400 was also plated as an activity control. Erythrocytes, lysed with distilled water and diluted to 100, 75, 50, 25, and 12.5 percent lysis, were used to quantify complement percent lysis. The plate was sealed and incubated at 37° C. for one hour with mixing every 15 minutes. […] The plate was read at 415 nm and percent lysis was calculated.

B1: zsig37: adipocyte complement related protein homolog, polypeptide of SEQ ID NO:2, inhibits collagen-mediated platelet activation and the complement pathway (protein, listed as Homo sapiens)
chain: MGSRGQGLLLAYCLLLAFASGLVLSRVPHVQGEQQEWEGTEELPSPPDHAERAEEQHEKYRPSQDQGLPASRCLRCCDPGTSMYPATAVPQINITILKGEKGDRGDRGLQGKYGKTGSAGARGHTGPKGQKGSMGAPGERCKSHYAAFSVGRKKPMHSNHYYQTVIFDTEFVNLYDHFNMFTGKFYCYVPGLYFFSLNVHTWNQKETYLHIMKNEEEVVILFAQVGDRSIMQSQSLMLELREQDQVWVRLYKGERENAIFSEELDTYITFSGYLVKHATEP
inhibition of classical pathway lysis (sensitized sheep erythrocytes): effective in inhibiting the classical pathway
inhibition of classical pathway lysis (unsensitized sheep erythrocytes): effective in inhibiting the classical pathway
